Experimental findings from US8435522 (Teva, dated 2013) are described below.

One may read the IC50 as the point on the concentration scale where inhibition reaches its midpoint. Read a high IC50 as a need for much substance.

For assay [1], the target named is T1, CXCR3 (human cell surface protein CD183) (human, UniProt P49682 1-368).
T1 sequence (looked up): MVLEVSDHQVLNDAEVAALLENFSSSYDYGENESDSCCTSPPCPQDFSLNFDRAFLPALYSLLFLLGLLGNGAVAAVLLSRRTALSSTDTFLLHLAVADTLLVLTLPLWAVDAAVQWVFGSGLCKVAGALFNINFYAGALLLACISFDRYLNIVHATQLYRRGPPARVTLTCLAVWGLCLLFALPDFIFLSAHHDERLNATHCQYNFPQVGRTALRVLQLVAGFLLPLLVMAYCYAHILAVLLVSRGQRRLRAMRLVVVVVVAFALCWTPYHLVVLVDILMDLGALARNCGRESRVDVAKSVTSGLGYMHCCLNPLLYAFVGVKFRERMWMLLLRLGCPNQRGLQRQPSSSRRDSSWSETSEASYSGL
Nature of the assay: cell-based or functional assay.

Assay [2] concerns the target T1, CXCR3 (human cell surface protein CD183). Nature of the assay: competition with Eu-V44 (Eu-labeled mouse CXCR3mAb) binding to Th1 cells. How it is done:
Th1 cells were incubated in a 96 well plate with Eu-CXCR3mAb in the absence or presence of various concentrations humanized CXCRmAbs. After incubation (1 hr at RT), cell bound Eu-CXCR3mAb was separated from free Europium by washing three times and the plate was read using Vctor2 fluorometer. IC$50$ values were calculated using Prizm software. Ab1 has a heavy chain sequence of humanized anti-CXCR3 V44D7 VH Lead #5 amino acid and a light chain sequence of humanized anti-CXCR3 V44D7 VK Lead #1 (see Informal Sequence Listing) in an IgG1 backbone. Ab2 has a heavy chain sequence of humanized anti-CXCR3 V44D7 VH Lead #5 and a light chain sequence of humanized anti-CXCR3 V44D7 VK Lead #7 (see Informal Sequence Listing) in an IgG1 backbone. Humanized Ab (IgG4) has a heavy chain sequence of humanized anti-CXCR3 V44D7 VH Lead #5 and a light chain sequence of the original mouse anti-CXCR3 V44D7 VK in an IgG4 backbone. Figure 22: FIG. 22 illustrates inhibition Eu-CXC10 by humanized CXCR3Abs. […] After incubation (1 hr at RT), cell bound Eu-CXCL10 was separated from free Europium by washing three times and the plate was read using Vctor2 fluorometer. IC$50$ values were calculated using Prizm software. […] After 2 hr incubation at 37° C., cells migrated to the bottom wells were determined by cell titer glo method (Promega).

The target is the same in assay [3]. Nature of the assay: competition with Eu-IP-10 binding to Th1 cells.
Assay [4] deals with T2, CXCR3 (human cell surface protein CD183) (human, UniProt P49682 1-368).
T2 chain: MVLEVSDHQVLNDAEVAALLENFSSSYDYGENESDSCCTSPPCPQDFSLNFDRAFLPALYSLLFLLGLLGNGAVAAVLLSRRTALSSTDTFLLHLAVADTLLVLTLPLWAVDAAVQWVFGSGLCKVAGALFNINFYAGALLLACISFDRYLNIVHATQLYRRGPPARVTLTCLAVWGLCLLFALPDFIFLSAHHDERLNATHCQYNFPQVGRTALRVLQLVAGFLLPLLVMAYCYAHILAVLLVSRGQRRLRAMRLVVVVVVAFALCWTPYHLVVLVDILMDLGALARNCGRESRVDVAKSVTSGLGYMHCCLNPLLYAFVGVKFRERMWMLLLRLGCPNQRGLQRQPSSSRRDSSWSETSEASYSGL
Description: 125I-CXCL11 binding inhibition on Th1 cells.

In assay [5] the target is T1, CXCR3 (human cell surface protein CD183). Description: cell-based or functional assay. The source holds these as a separate data set.
Assay [6] has the same target. Nature of the assay: displacement of 125I-I-Tac binding to Th1 cells.
For assay [7] the target is unchanged. Description: displacement of 125I-IP-10 binding to Th1 cells. How it is done:
Figure 14: FIG. 14 illustrates expression of CXCR3 on Th1 cells. Th1 and Th2 cells were generated from cord blood and CXCR3 and CCR4 expression were determined by FACS. CXCR3 was present only Th1 cells. […] IC$50$ values were calculated using Prizm software. Lead candidates were highlighted in green. […] IC$50$ values were calculated using Prizm software. Lead candidates were highlighted in green.

Assay [8] addresses T3, rat CXCR3 (on polarized rat Th1 cells) (rat, UniProt Q9JII9 1-367).
T3 construct: whole, on cells; the target meant is rat CXCR3
T3 sequence (looked up): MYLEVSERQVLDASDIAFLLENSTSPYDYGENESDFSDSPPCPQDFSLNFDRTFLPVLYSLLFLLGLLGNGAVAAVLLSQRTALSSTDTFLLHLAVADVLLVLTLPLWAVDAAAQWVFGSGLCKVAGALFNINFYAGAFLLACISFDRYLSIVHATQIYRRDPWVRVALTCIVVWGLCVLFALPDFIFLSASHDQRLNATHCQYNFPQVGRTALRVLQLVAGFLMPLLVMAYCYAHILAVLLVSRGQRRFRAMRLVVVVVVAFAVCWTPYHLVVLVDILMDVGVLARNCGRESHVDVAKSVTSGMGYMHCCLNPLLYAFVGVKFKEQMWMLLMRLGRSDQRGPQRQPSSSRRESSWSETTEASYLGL
Description: FACS on polarized rat Th1 cells. The method, then:
FACS analysis was performed to determine reactivity of mouse CXCR3mAb to polarized rat Th1 cells. Only rabbit anti-mouse CXCR3 Ab bound to rat Th1 cells. […] As a control, mouse anti-CXCR3mAb binding to human Th1 cells is also shown (bottom panel).
The parental mouse CXCR3mAb was tested for binding to polarized rat Th1 cells by FACS. Only rabbit anti-mouse CXCR3 Ab (positive control) bound to rat Th1 cells.

B1: Humanized Ab2 H5K7 (antibody, V domains shown)
VH: EVQLLESGGGLVQPGGSLRLSCAASGFTFSNYAMSWVRQAPGKGLEWVSTISSGGGYTYYPDSLKGRFTISRDNSKNTLYLQMNSLRAEDTAVYYCAKHGAPMTTVITYAPYYFYYWGQGTTVTVSS
VL: ENVLTQSPAFLSVTPGEKVTITCRASSSVKYMYWYQQKPDQAPKLWIYYTSNLAPGVPSRFSGSGSGNDYTFTISSLEAEDAATYYCQQFTTSPYTFGGGTKLEIK
notes: IgG1 backbone, human kappa
Consider B1, for which the “Chemotaxis IC50” value in assay [1] stood at 0.28 nM. In addition, the values for the IC50 in assay [2] and in assay [3] were 1.82 nM and 0.35 nM, respectively.

B2: CXCL11 (I-TAC, interferon-inducible T cell a-chemoattractant) (ligand)
chain: FPMFKRGRCLCIGPGVKAVKVADIEKASIMYPSNNCDKIEVIITLKENKGQRCLNPKSKQARLIIKKVERKNF
modifications: 125I label, site not stated
Consider B2, for which the IC50 in assay [4] amounted to 0.01 nM. In other words, the picomolar range.

B3: Mouse anti-CXCR3 V44D7 (antibody, V domains shown)
VH: EVMLVESGGGLVKPGGSLKLSCAASGFTFSNYAMSWVRQTPEKRLEWVATISSGGGYTYYPDSLKGRFTISRDNAKNTLFLQMSSLRSEDTAVYYCVRHGAPMTTVITYAPYYFDYWGQGTTLTVSS
VL: ENVLTQSPAIMSASLGEKVTMNCRASSSVKYMYWYQQKSDASPKLWIYYTSNLAPGVPARFSGSGSGNSYSLTISSMEGEDAATYYCQQFTTSPYTFGGGTKLEIK
notes: also called V44D7A; Ab#5
Take B3: the “Inhibition of IP-10-induced Th1 chemotaxis, IC50” value in assay [5] amounted to 35 ng/mL. The “Chemotaxis IC50” value in assay [1] is 0.09 nM. For the same molecule, the half-inhibitory concentration (IC50) worked out at 0.1 nM in assay [6], 0.29 nM in assay [2], 0.14 nM in assay [3] and 0.13 nM in assay [7]. In addition, the binding result in assay [8] is on record as “no binding”.
